Positions count from the first letter of the chain named.
T1: recombinant human protein antigen hu-IL-11-His tag (human, UniProt P20809 22-199)
T1 construct: also called IL-11-His protein; not shown: His tag
T1 sequence (looked up): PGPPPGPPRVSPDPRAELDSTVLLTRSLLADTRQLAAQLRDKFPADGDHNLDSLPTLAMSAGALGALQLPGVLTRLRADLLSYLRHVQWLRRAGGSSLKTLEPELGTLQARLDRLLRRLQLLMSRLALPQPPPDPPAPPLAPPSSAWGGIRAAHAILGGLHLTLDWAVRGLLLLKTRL

T2: IL-11 (UniProt P20809 22-199, limits assumed)
T2 construct: also called IL-11 protein; IL-11 antigen
T2 sequence (looked up): T1 sequence (looked up)

T3: IL-11 stably expressed on CHO cells (membrane-IL-11 CHO) (UniProt P20809 22-199)
T3 construct: whole, on cells
T3 sequence (looked up): T1 sequence (looked up)

B1: VH1+VL3 full-length humanized antibody (antibody, human IgG1, kappa, V domains shown)
VH: QVQLVQSGAEVKKPGASVKVSCKASDYTFTNYWLGWVRQAPGQGLEWMGHIYPGGGYTNYNEKFKGRVTMTRDTSTSTVYMELSSLRSEDTAVYYCARVRSGNDALDFWGQGTLVTVSS
VL: EIVLTQSPATLSLSPGERATLSCRASESVDEYGISFMNWFQQKPGQAPRLLIYSASNQGSGIPARFSGSGSGTDFTLTISSLEPEDFAVYFCQQSKEVPWTFGGGTKLEIKR
notes: IgG form, IgG1 Fc; also called VH1+VL3 mAb; CPD-2
B2: VH1+VL2 full-length humanized antibody (antibody, human IgG1, kappa, V domains shown)
VH: B1 VH
VL: B1 VL with F40Y
notes: IgG form, IgG1 Fc
B3: VH1+VL4 full-length humanized antibody (antibody, human IgG1, kappa, V domains shown)
VH: B1 VH
VL: B1 VL with V89M
notes: IgG form, IgG1 Fc
B4: full-length chimeric antibody constructed by 5-20E11-5F2 (Example 15) (antibody, human IgG1, kappa, V domains shown)
VH: QVQLQQSGAELVRPGTSAKISCKASDYTFTNYWLGWLKQRPGHGLEWIGHIYPGGGYTNYNEKFKGKATLTADTSSSTAYMQLSSLTSEDSAVYFCARVRSGNDALDFWGQGTSVTVSS
VL: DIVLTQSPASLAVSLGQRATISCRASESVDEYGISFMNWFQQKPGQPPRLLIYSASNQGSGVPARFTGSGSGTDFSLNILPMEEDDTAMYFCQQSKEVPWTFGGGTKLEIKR
notes: also called CPD-1; VH+VL
B5: MIL-11 mab-02 (antibody, IgG1, V domains shown)
VH: B1 VH with R100S
VL: EIVLTQSPATLSLSPGERATLSCRASESVDEYGISFMNWFQQKPGQAPRLLIYSASNQGSGIPARFSGSGSGTDFTLTISSLEPEDFAVYFCQQSKELPWTFGGGTKLEIK
notes: also called 2E2 full-length antibody
B6: MIL-11 mab-03 (antibody, IgG1, V domains shown)
VH: B1 VH with R100S
VL: B5 VL with G59A
notes: also called 1F12 full-length antibody
B7: MIL-11 mab-01 (antibody, IgG1, V domains shown)
VH: B1 VH with R100S, F108L
VL: B5 VL with A55G, Q58E, Q93N, L98V
notes: also called 1E12 full-length antibody
B8: 3-2B5-3D2 (antibody, human IgG1, kappa, V domains shown)
VH: QVQLKQSGPGLVLPSQSLSITCTVSGFSLTSYGVHWFRQSPGTGLEWLGVIWSGGITDYNATFIPRLSISKDNSKSQVFFKMNSLQADDTAIYYCARNFDGYYYSIDYWGQGTSVTVSS
VL: DIQMTQTTSSLSASLGDRVTISCRASQDISNSLNWYQQKPDGTVKLLIYYTSRLHSGVPSRFTGSGSGTDYSLTISNLEQEDIATYFCQQGNTLPLTFGAGTKLELKR
B9: 3-7C9-1A6 (antibody, human IgG1, kappa, V domains shown)
VH: QVQLKQSGPGLVQPSQSLSITCTVSGFSLTNYGVHWVRQSPGKGLEWLGAIWRGGSTDYNAAFMSRLSITKDNSKSQVFFKMNSLQPDDTAIYYCAKNLYGPAAMDYWGQGTSVTVSS
VL: DIQMNQSPSSLSASLGDTITITCHANQNIYVWLSWYQQKPGNIPKLLIYEASNLHTGVPSRFSGSGSGTGFTLTISSLQPEDIATYYCQQGQSYPYTFGGGTKLEIKR
B10: 3-15D5-3A6 (antibody, human IgG1, kappa, V domains shown)
VH: QVTLKESGPGILQPSQTLSLTCSFSGFSLSSSGMSVGWIRQPSGKGLEWLAHIWWSDDKSYNPALKSRLTISKDTSNNQVFLKIASVVTADTATYYCAREGSLGYGLDYWGQGTTLTVSS
VL: DVLMTQTPLSLPVSLGDQASISCRSSQSIVHTDGNTYLEWYLQKPGQSPKLLIYKVSNRFSGVPDRFSGSGSGTDFTLKISRVEAEDLGVYYCFQGSHVPWTFGGGTKLEIKR
B11: 3-9E1-3A2 (antibody, human IgG1, kappa, V domains shown)
VH: QIQLVQSGPELKKPGETVNISCRASGDTFTNYAVNWVKQAPGKGLKWMGWIDTYTGDPTYADDLKGRFAFSLETSATTAYLQINNLKNEDTATYFCAGDTWFAYWGQGTLVTVSA
VL: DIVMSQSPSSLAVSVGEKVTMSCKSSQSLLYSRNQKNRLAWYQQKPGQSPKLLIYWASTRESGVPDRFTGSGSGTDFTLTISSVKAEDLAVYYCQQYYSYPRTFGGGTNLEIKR
B12: 3-15D5-6A1 (antibody, human IgG1, kappa, V domains shown)
VH: EVKLLESGGGLVQPGGSLKLSCAASGFDFRRYWMSWVRQAPGKGLEWIGQINPDSSMINYTPSLKDKFIISRDNAKNTLYLQMSEVRSEDTALYYCATYGHHATDSWGQGTSVTVSS
VL: DIVLTQSPASLAVSLGQRATISCRASESVDSYGNSFMHWYQQKPGQPPKLLIYRASNLESGIPARFSGSGSRTDFTLTINPVEADDVATYYCQQSNEDPFTFGSGTKLEIKR

Molecular target: T1, recombinant human protein antigen …
Experiment: flow cytometry competition: IL-11-His plus antibody on membrane-IL-11R CHO cells
Experimental: The inventors constructed a cell line (membrane-IL-11R CHO) that stably expressing IL-11R. […] Then 1.5*10\hat{ }5 membrane-IL-11R CHO cells (100 μL/well) were added and incubated for 1 h at room temperature. […] Then, the plate was incubated at 4° C. for 1 h, centrifuged at 1500 rpm for 5 min, washed three times with PBS, and resuspended cells in 180 μl PBS, and detected by flow cytometry.

**Q.** B1 was tested. Which EC50 did it give?
**A.** The EC50 was 10.5 µg/mL.

**Q.** With B2 as the binder, how does the EC50 read?
**A.** Its EC50 is 11.6 µg/mL.

**Q.** B3 was tested. Which EC50 did it give?
**A.** The EC50 was 12.5 µg/mL.

**Q.** With B4 as the binder, how does the EC50 read?
**A.** The EC50 was 7.54 µg/mL.

Molecular target: T2, IL-11
Experiment: BLI (Fortebio), antibody on AHC sensor, IL-11 as analyte
Experimental: (§1) The determination method consisted of the following steps: the humanized antibody was captured by an AHC sensor. […] Finally, the sensor was regenerated with 10 mM glycine (pH 1.7) buffer.

**Q.** Which “fold increase of affinity against the humanized antibody VH1+VL3” value does the source give for B5 here?
**A.** The value was 10 fold.

**Q.** For B6, which “fold increase of affinity against the humanized antibody VH1+VL3” value is on record?
**A.** The value was 10 fold.

Molecular target: T2, IL-11
Experiment: SPR Biacore T200, antibody captured, IL-11 6.25-400 nM
Experimental: The measure method included the following steps of capturing the full-length humanized antibody at a flow rate of 10 μL/min. […] The binding time was 180 s, and the dissociation time was 600 s. Finally, the chip was regenerated with 10 mM glycine buffer.

**Q.** Which Kd does the source give for B1 here?
**A.** The Kd was 9.03 nM.

**Q.** What about the koff of the same binder?
**A.** The koff was 0.000474 s⁻¹.

**Q.** What about the kon of the same binder?
**A.** Its kon is 52600 M⁻¹ s⁻¹.

**Q.** Which results are given for B2?
**A.** Kd: 12 nM; koff: 0.000597 s⁻¹; kon: 49800 M⁻¹ s⁻¹

**Q.** Which results are given for B3?
**A.** Kd: 10 nM; koff: 0.000545 s⁻¹; kon: 54300 M⁻¹ s⁻¹

**Q.** Which results are given for B4?
**A.** Kd: 6.41 nM; koff: 0.000433 s⁻¹; kon: 67600 M⁻¹ s⁻¹

Molecular target: T2, IL-11
Experiment: BLI (Fortebio), antibody on AHC sensor, IL-11 3.91-125 nM
Experimental: as §1

**Q.** For B5, which Kd is on record?
**A.** The Kd was 0.242 nM.

**Q.** What about the koff of the same binder?
**A.** Its koff is 0.00013 s⁻¹.

**Q.** And the kon?
**A.** The kon was 535000 M⁻¹ s⁻¹.

**Q.** For B1, which Kd is on record?
**A.** Its Kd is 2.84 nM.

**Q.** What about the koff of the same binder?
**A.** Its koff is 0.000609 s⁻¹.

**Q.** What about the kon of the same binder?
**A.** Its kon is 214000 M⁻¹ s⁻¹.

**Q.** Which Kd does the source give for B7 here?
**A.** Its Kd is 1.17 nM.

**Q.** And the koff?
**A.** Its koff is 0.000584 s⁻¹.

**Q.** What about the kon of the same binder?
**A.** The kon was 501000 M⁻¹ s⁻¹.

**Q.** Which results are given for B6?
**A.** Kd: 0.262 nM; koff: 0.000152 s⁻¹; kon: 580000 M⁻¹ s⁻¹

Molecular target: T3, IL-11 stably expressed on CHO cells …
Experiment: flow cytometry on membrane-IL-11 CHO cells, detection with goat-anti-Fc-FITC
Experimental: The cells were washed 3 times with PBS, and then the flow secondary antibody Goat-anti-Fc-FITC (Abcam, ab98529) was added and detected by flow cytometry. The results were plotted as S-curves in FIG. 11.

**Q.** How did the “EC50 (read off the curve)” value turn out when B5 was run?
**A.** Its value is about 2 µg/mL.

**Q.** With B1 as the binder, how does the “EC50 (read off the curve)” value read?
**A.** The value was about 2 µg/mL.

**Q.** With B7 as the binder, how does the “EC50 (read off the curve)” value read?
**A.** The value was about 3 µg/mL.

**Q.** How did the “EC50 (read off the curve)” value turn out when B6 was run?
**A.** Its value is about 2 µg/mL.

Molecular target: T2, IL-11
Experiment: flow, IL-11 + antibody on IL-11R cells; lower = more blocking

**Q.** How did the “FITC Mean” value turn out when B8 was run?
**A.** Its value is 15300 mean fluorescence.

**Q.** B9 was tested. Which “FITC Mean” value did it give?
**A.** Its value is 3150 mean fluorescence.

**Q.** Which “FITC Mean” value does the source give for B10 here?
**A.** The value was 10900 mean fluorescence.

**Q.** For B11, which “FITC Mean” value is on record?
**A.** Its value is 9070 mean fluorescence.

**Q.** Which “FITC Mean” value does the source give for B12 here?
**A.** Its value is 13600 mean fluorescence.

Molecular target: T2, IL-11
Experiment: ELISA on IL-11, monoclonal hybridoma antibody

**Q.** Which OD450 does the source give for B8 here?
**A.** Its OD450 is 1.61 OD450.

**Q.** B9 was tested. Which OD450 did it give?
**A.** The OD450 was 1.6 OD450.

**Q.** How did the OD450 turn out when B10 was run?
**A.** Its OD450 is 1.69 OD450.

**Q.** With B11 as the binder, how does the OD450 read?
**A.** Its OD450 is 1.54 OD450.

**Q.** B12 was tested. Which OD450 did it give?
**A.** Its OD450 is 1.51 OD450.
